Test results published in the RNAGym collection of RNA variant scans (doi:10.1073/pnas.2313332121).

B1: TPR t1 (parent)
chain: GACCAAUCUGCCCUCAGAGCUCGAGAACAUCUUCGGAUGCAGAGGAGGCAGGCUUCGGUGGCGCGAUAGCGCCAACGUCCUCAACCUCCAAUGCAUCCCACCACAUGAUGAUGCCUGAAGAGCCUUGGUUUUUUG

Variants of: B1
Experiment: polymerase ribozyme fitness, log enrichment relative to wild type (log ratio); higher = more active; in vitro selection for triplet polymerase activity
Outline: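 For each subunit of a heterodimeric triplet polymerase ribozyme, a mutant library was built by PCR and transcribed, then taken through a single in vitro selection round in triplicate. Selection involved annealing to a biotinylated primer, the partner subunit and triplets, incubation frozen at −7 °C, gel excision of extended constructs, capture on streptavidin beads and RT-PCR. Genotypes were retained after Illumina sequencing of inputs and outputs only with ≥10 input reads and ≥1 read in each output. Fitness is defined as the logarithm of a genotype's enrichment relative to wild-type enrichment, using inverse-variance-weighted averages across replicates, with the logarithm taken to base 2.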

Row | Variant | polymerase ribozyme fitness (log ratio)
1 | U59C U81G | -3.51
2 | U59C U87A U112C | 0.815
3 | U59C U106G | -1.74
4 | U59C U112C | 1.98
5 | U59C U130C | -0.123
6 | U59G A74G | -0.396
7 | U59G A90G C97U A111C | 0.601
8 | U59G C86U A95U C115A C123U | -2.76
9 | U59G C88G | -2.09
10 | U59G C102A | -1.41
11 | U59G G60A C85A | -2.54
12 | U59G G61U | -0.648
13 | U59G G61U A118U | -0.0772
14 | U59G G63U U129C | -2.43
15 | U59G G110U G135U | -2.85
16 | U59G U96G A111C U131A U133A | -1.54
17 | U59G U109G G120U | -4.53
18 | G60A A90C C123U | 0.00477
19 | G60A A90G U96C C101G | -1.58
20 | G60A A90U | -1.06
21 | G60A A91C | -1.35

Row | Variant | polymerase ribozyme fitness (log ratio)
22 | G60A C64A C80U C97A C115A U125A U126G | -7.2
23 | G60A C64A U112C | -6.76
24 | G60A C73A | -0.416
25 | G60A C79U | 0.344
26 | G60A C79U U130C | 0.829
27 | G60A C82U C85G U129A | -3
28 | G60A C82U U109G | -5.13
29 | G60A C85U U106G | -3.68
30 | G60A C86U | -0.149
31 | G60A C88U A118G | -1.01
32 | G60A C88U G122A | -2.19
33 | G60A C89A | -1.99
34 | G60A C89A A105U C114U | -6.37
35 | G60A C94A | -2.04
36 | G60A C98A | -4.29
37 | G60A C98G | -7.02
38 | G60A C99U G110U U130A | -5.82
39 | G60A C101A U106A A119U C123U | -4.23
40 | G60A C104A G113U | -5.38
41 | G60A C114A A121G | -0.404
42 | G60A C115U | -1.41

Row | Variant | polymerase ribozyme fitness (log ratio)
43 | G60A C123A | 0.222
44 | G60A G61A C88A G120C A121U | -2.51
45 | G60A G61U G127C | -5.15
46 | G60A G61U U96G | -2.55
47 | G60A G69A U87A | -3.78
48 | G60A G69U | -0.576
49 | G60A G69U A95U U126A | -2.8
50 | G60A G69U C72U C86G A118U U129A | -5.04
51 | G60A G77A C82G | -0.994
52 | G60A G93A A121U | 1.81
53 | G60A G93C U132A | -1.25
54 | G60A G93U | -1.61
55 | G60A G93U U112C G113U | -5.49
56 | G60A G110A U112C | -1.67
57 | G60A G113A | -0.894
58 | G60A G113U | -1.94
59 | G60A G120U | 0.305
60 | G60A G128A | -2.27
61 | G60A G135C | 0.136
62 | G60A U78C | -0.393
63 | G60A U78C C97G | -4.55

Row | Variant | polymerase ribozyme fitness (log ratio)
64 | G60A U78G A84U G93A C102A | -4.94
65 | G60A U81A | -1.44
66 | G60A U81G U109A C124A | -7.74
67 | G60A U106A | -0.15
68 | G60A U106G | -0.897
69 | G60A U112A | 1.13
70 | G60A U112G G120A | -2.56
71 | G60C A66G C82A | -1.84
72 | G60C A83C | -0.586
73 | G60C A83G | -1.24
74 | G60C A84C | -0.975
75 | G60C A84U U116C | -0.854
76 | G60C A95G | 0.473
77 | G60C A111U U116C | -5.57
78 | G60C C73U U130G | -0.603
79 | G60C C76U | -3.93
80 | G60C C79G G122A | -2.36
81 | G60C C82A A105G U131A | -4.31
82 | G60C C85A | -0.933
83 | G60C C85U U96A U106C A119U | -4.09
